We go through one substance from patent publication US20100093076A1, “SOLUBLE IL-27 RECEPTOR” (priority 2006, published 2010).

The target of one assay is T1, single-chain mouse IL-27 (Mus musculus, UniProt O35228+Q8K3I6).
T1 sequence (O35228+Q8K3I6 with tags, fused parts or gaps): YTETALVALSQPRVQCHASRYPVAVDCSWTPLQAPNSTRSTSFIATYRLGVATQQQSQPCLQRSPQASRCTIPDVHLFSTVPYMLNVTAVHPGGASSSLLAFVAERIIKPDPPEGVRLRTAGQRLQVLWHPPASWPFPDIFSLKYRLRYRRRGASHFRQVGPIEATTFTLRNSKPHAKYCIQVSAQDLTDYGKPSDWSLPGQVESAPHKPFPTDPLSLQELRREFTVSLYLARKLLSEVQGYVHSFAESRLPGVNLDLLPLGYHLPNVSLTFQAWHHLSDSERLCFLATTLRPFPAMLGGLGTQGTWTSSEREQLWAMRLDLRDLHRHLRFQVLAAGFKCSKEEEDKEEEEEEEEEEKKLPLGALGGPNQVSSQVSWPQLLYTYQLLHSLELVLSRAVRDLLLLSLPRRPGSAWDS
Kind of assay: IL-27 inhibition of IL-2 production neutralized by IL-27RA Fc (third set of experiments). Conditions: + IL-27 (10 ng/ml). Format: cell-based. The procedure: Naïve mouse CD4 T-cells were isolated as described above. For testing of the neutralizing mAbs, the naïve CD4 T cells were preincubated for 30 minutes at 37 degrees C. with graded concentrations (60, 30, 15, 7.5, 3.75, 1.875.micro.g/ml) of either neutralizing rat anti-mouse IL27RA mAb (each mAb tested separately), rat IgG1 isotype control mAb, rat IgG2a isotype control mAb, or no mAb. […] The CD4 T cells (4×10^5/well) were then transferred to anti-CD3 coated tissue culture plates. Single-chain mouse IL-27 (10 ng/ml) was then added to the plates. Duplicate plates were set up for all experimental conditions. The plates were then cultured at 37 degrees for up to 72 hours.
For testing of the soluble receptor, single-chain mouse IL-27 (10 ng/ml) was preincubated for 30 minutes at 37 degrees C. with either IL27RAm(mFc1) (10.0 and 5.0.micro.g/ml), IL27RA-Fc5, mouse Fc1 protein (10.0 and 5.0.micro.g/ml), human Fc5 protein (10.0 and 5.0.micro.g/ml), or no recombinant protein in wells of the anti-CD3 coated plates. 4×10^5 CD4^+ CD62L high cells were added to the wells. Duplicate plates were set up for all experimental conditions. The plates were then cultured at 37 degrees for up to 72 hours. Cell supernatants were collected from one set of plates at 48 hours and from the duplicate set of plates at 72 hours. The supernatants were stored frozen at −80° C.

The target in a further assay is T2, huIL-27 (Homo sapiens, UniProt Q14213+Q8NEV9).
T2 construct: purchased R&D Systems
T2 sequence (Q8NEV9 29-243): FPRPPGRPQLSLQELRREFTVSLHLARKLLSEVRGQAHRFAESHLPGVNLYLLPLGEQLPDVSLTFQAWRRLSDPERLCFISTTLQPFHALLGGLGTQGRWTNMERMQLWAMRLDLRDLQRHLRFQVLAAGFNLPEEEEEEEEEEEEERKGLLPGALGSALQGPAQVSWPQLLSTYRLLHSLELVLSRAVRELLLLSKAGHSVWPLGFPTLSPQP
T2 sequence (Q14213 21-229): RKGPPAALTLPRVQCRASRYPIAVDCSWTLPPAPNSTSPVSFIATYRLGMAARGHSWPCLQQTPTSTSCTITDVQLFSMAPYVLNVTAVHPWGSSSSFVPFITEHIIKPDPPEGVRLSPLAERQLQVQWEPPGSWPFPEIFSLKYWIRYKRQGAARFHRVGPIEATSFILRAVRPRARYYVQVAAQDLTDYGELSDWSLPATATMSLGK
Kind of assay: Phospho-STAT3 (BIO-PLEX) neutralization of IL-27 by soluble receptors, mouse spleens. Format: cell-based. The conditions noted are these: ligand huIL-27 at EC90 (2 nM). An excerpt: Whole mouse spleens were harvested from C57 B1/6 mice and washed two times with 1×PBS before being plated out at 2×10^5 cells/well in assay media (RPMI 1640 plus 10% fetal bovine serum) in 96-well, round-bottom tissue culture plates. Total human PBMC (peripheral blood mononuclear cells) were thawed from a frozen vial collected from a leukapherisis donation and washed two times with 1×PBS before being plated out at 10^6 cells/well in assay media in 96-well, round-bottom tissue culture plates. […] Following pre-incubation, treatments were added to the plates containing the cells and incubated together at 37° C. for 15 minutes.
Following incubation, cells were washed with ice-cold wash buffer (BIO-PLEX Cell Lysis Kit, BIO-RAD Laboratories, Hercules, Calif.) and put on ice to stop the reaction according to manufacturer's instructions. […]
Capture beads (BIO-PLEX Phospho-Stat3 Assay, BIO-RAD Laboratories) were combined with 50 μL of 1:1 diluted lysates and added to a 96-well filter plate according to manufacture's instructions (BIO-PLEX Phosphoprotein Detection Kit, BIO-RAD Laboratories). […] After the final wash, beads were resuspended in 125 μL/well of bead suspension buffer, shaken for 30 seconds, and read on an array reader (BIO-PLEX, BIO-RAD Laboratories) according to the manufacture's instructions. Data were analyzed using analytical software (BIO-PLEX MANAGER 3.0, BIO-RAD Laboratories). […]

Several values for one entry are separate records, joined by “and”; a condition that tells them apart may be missing. Equal entries are not always repeated.

As for “human IL-27RA-Fc5: Extracellular domain of human IL27RA (amino acids 1 to 512 of SEQ ID NO:3) fused to Fc5, effector minus human gamma1 Fc; SEQ ID NO:16”, the IL-2 concentration was 5784.11 pg/mL with single-chain mouse IL-27 (48 hr, protein conc. 5 (μg/ml; Fc controls in molar equiv.)); 5774.94 pg/mL and 5333.6 pg/mL with single-chain mouse IL-27 (48 hr, protein conc. 10 (μg/ml; Fc controls in molar equiv.), listed as hIL-27RA); 1869.62 pg/mL with single-chain mouse IL-27 (72 hr, protein conc. 5 (μg/ml; Fc controls in molar equiv.)); 28607.63 pg/mL and 17481.17 pg/mL with single-chain mouse IL-27 (72 hr, protein conc. 10 (μg/ml; Fc controls in molar equiv.), listed as hIL-27RA). Besides, the IC50 – broadly, the midpoint of a concentration-inhibition curve – with huIL-27 amounted to 0.32 nM.
